Measured values taken from patent US20200297818A1 (ZEALAND PHARMA A S, published 2020).
*1 amine or outer side, *2 acyl side, *3 side chain or, on linkers, in order; H or OH if unused. Side-chain parts run from the residue outwards. [ ]: non-standard residue; d: D form. The star is where a group is joined. C20 diacid = O=C(O)CCCCCCCCCCCCCCCCCCC(=O)*; C18 diacid = O=C(O)CCCCCCCCCCCCCCCCC(=O)*; γGlu = O=C(O)[C@H](CCC(=O)[*:2])N[*:1]; εLys = N[C@@H](CCCCN[*:1])C(=O)[*:2]; Stearoyl = CCCCCCCCCCCCCCCCCC(=O)*; AEEA = NCCOCCOCC(=O)O; Aib = CC(C)(N)C(=O)O

T1: human GLP-2 receptor (hGLP2-R) (human, UniProt O95838 1-553)
T1 sequence (looked up): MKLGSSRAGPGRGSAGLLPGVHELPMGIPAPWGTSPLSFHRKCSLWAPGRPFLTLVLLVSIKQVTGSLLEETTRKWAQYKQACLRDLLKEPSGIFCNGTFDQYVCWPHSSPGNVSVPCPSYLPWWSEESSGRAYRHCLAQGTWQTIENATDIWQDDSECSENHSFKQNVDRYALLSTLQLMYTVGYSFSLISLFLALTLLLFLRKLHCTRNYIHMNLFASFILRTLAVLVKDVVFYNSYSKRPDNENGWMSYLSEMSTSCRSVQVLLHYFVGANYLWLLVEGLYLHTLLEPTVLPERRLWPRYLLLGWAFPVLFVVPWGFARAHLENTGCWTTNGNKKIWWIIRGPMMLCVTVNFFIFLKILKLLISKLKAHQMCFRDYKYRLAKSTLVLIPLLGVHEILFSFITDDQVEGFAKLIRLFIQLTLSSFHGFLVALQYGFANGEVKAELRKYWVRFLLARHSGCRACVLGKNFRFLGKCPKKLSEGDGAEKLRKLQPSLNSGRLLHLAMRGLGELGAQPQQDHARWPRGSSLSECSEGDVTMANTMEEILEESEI

B1: Compound 42 (peptide)
peptide: H-H[Aib]EGSFTSEK([AEEA-AEEA-γGlu-C20 diacid])ATILDEQAARDFIAWLIEHKITD-OH
SMILES: CC[C@H](C)[C@H](NC(=O)[C@H](Cc1ccccc1)NC(=O)[C@H](CC(=O)O)NC(=O)[C@H](CCCNC(=N)N)NC(=O)[C@H](C)NC(=O)[C@H](C)NC(=O)[C@H](CCC(N)=O)NC(=O)[C@H](CCC(=O)O)NC(=O)[C@H](CC(=O)O)NC(=O)[C@H](CC(C)C)NC(=O)[C@@H](NC(=O)[C@@H](NC(=O)[C@H](C)NC(=O)[C@H](CCCCNC(=O)COCCOCCNC(=O)COCCOCCNC(=O)CC[C@H](NC(=O)CCCCCCCCCCCCCCCCCCC(=O)O)C(=O)O)NC(=O)[C@H](CCC(=O)O)NC(=O)[C@H](CO)NC(=O)[C@@H](NC(=O)[C@H](Cc1ccccc1)NC(=O)[C@H](CO)NC(=O)CNC(=O)[C@H](CCC(=O)O)NC(=O)C(C)(C)NC(=O)[C@@H](N)Cc1c[nH]cn1)[C@@H](C)O)[C@@H](C)O)[C@@H](C)CC)C(=O)N[C@@H](C)C(=O)N[C@@H](Cc1c[nH]c2ccccc12)C(=O)N[C@@H](CC(C)C)C(=O)N[C@H](C(=O)N[C@@H](CCC(=O)O)C(=O)N[C@@H](Cc1c[nH]cn1)C(=O)N[C@@H](CCCCN)C(=O)N[C@H](C(=O)N[C@H](C(=O)N[C@@H](CC(=O)O)C(=O)O)[C@@H](C)O)[C@@H](C)CC)[C@@H](C)CC
B2: Compound 35 (peptide)
peptide: H-H[Aib]EGSFTSELATILDK([AEEA-AEEA-AEEA-εLys-C20 diacid])QAARDFIAWLIQQKITD-OH
SMILES: CC[C@H](C)[C@H](NC(=O)[C@H](Cc1ccccc1)NC(=O)[C@H](CC(=O)O)NC(=O)[C@H](CCCNC(=N)N)NC(=O)[C@H](C)NC(=O)[C@H](C)NC(=O)[C@H](CCC(N)=O)NC(=O)[C@H](CCCCNC(=O)COCCOCCNC(=O)COCCOCCNC(=O)COCCOCCNC(=O)[C@@H](N)CCCCNC(=O)CCCCCCCCCCCCCCCCCCC(=O)O)NC(=O)[C@H](CC(=O)O)NC(=O)[C@H](CC(C)C)NC(=O)[C@@H](NC(=O)[C@@H](NC(=O)[C@H](C)NC(=O)[C@H](CC(C)C)NC(=O)[C@H](CCC(=O)O)NC(=O)[C@H](CO)NC(=O)[C@@H](NC(=O)[C@H](Cc1ccccc1)NC(=O)[C@H](CO)NC(=O)CNC(=O)[C@H](CCC(=O)O)NC(=O)C(C)(C)NC(=O)[C@@H](N)Cc1c[nH]cn1)[C@@H](C)O)[C@@H](C)O)[C@@H](C)CC)C(=O)N[C@@H](C)C(=O)N[C@@H](Cc1c[nH]c2ccccc12)C(=O)N[C@@H](CC(C)C)C(=O)N[C@H](C(=O)N[C@@H](CCC(N)=O)C(=O)N[C@@H](CCC(N)=O)C(=O)N[C@@H](CCCCN)C(=O)N[C@H](C(=O)N[C@H](C(=O)N[C@@H](CC(=O)O)C(=O)O)[C@@H](C)O)[C@@H](C)CC)[C@@H](C)CC
B3: Compound 39 (peptide)
peptide: HXEGTFTSELATILDEQAARDFIAWLIAHKITDXXXXXXX
HELM: PEPTIDE1{H.[Aib].E.G.T.F.T.S.E.L.A.T.I.L.D.E.Q.A.A.R.D.F.I.A.W.L.I.A.H.K.I.T.D.[dK].[dK].[dK].[dK].[dK].[dK].[am]}|PEPTIDE2{[O=C(O)CCCCCCCCCCCCCCCCC(=O)[*:2]].[gGlu]}$PEPTIDE1,PEPTIDE2,39:R3-2:R2$$$V2.0
SMILES: CC[C@H](C)[C@H](NC(=O)[C@H](CC(C)C)NC(=O)[C@H](Cc1c[nH]c2ccccc12)NC(=O)[C@H](C)NC(=O)[C@@H](NC(=O)[C@H](Cc1ccccc1)NC(=O)[C@H](CC(=O)O)NC(=O)[C@H](CCCNC(=N)N)NC(=O)[C@H](C)NC(=O)[C@H](C)NC(=O)[C@H](CCC(N)=O)NC(=O)[C@H](CCC(=O)O)NC(=O)[C@H](CC(=O)O)NC(=O)[C@H](CC(C)C)NC(=O)[C@@H](NC(=O)[C@@H](NC(=O)[C@H](C)NC(=O)[C@H](CC(C)C)NC(=O)[C@H](CCC(=O)O)NC(=O)[C@H](CO)NC(=O)[C@@H](NC(=O)[C@H](Cc1ccccc1)NC(=O)[C@@H](NC(=O)CNC(=O)[C@H](CCC(=O)O)NC(=O)C(C)(C)NC(=O)[C@@H](N)Cc1c[nH]cn1)[C@@H](C)O)[C@@H](C)O)[C@@H](C)O)[C@@H](C)CC)[C@@H](C)CC)C(=O)N[C@@H](C)C(=O)N[C@@H](Cc1c[nH]cn1)C(=O)N[C@@H](CCCCN)C(=O)N[C@H](C(=O)N[C@H](C(=O)N[C@@H](CC(=O)O)C(=O)N[C@H](CCCCN)C(=O)N[C@H](CCCCN)C(=O)N[C@H](CCCCN)C(=O)N[C@H](CCCCN)C(=O)N[C@H](CCCCN)C(=O)N[C@H](CCCCNC(=O)CC[C@H](NC(=O)CCCCCCCCCCCCCCCCC(=O)O)C(=O)O)C(N)=O)[C@@H](C)O)[C@@H](C)CC
B4: Compound 40 (peptide)
peptide: HXEGSFTSELATILDEQAARDFIAWLIEHKITDXXXXXXX
HELM: PEPTIDE1{H.[Aib].E.G.S.F.T.S.E.L.A.T.I.L.D.E.Q.A.A.R.D.F.I.A.W.L.I.E.H.K.I.T.D.[dK].[dK].[dK].[dK].[dK].[dK].[am]}|PEPTIDE2{[O=C(O)CCCCCCCCCCCCCCCCC(=O)[*:2]].[gGlu]}$PEPTIDE1,PEPTIDE2,39:R3-2:R2$$$V2.0
SMILES: CC[C@H](C)[C@H](NC(=O)[C@H](Cc1ccccc1)NC(=O)[C@H](CC(=O)O)NC(=O)[C@H](CCCNC(=N)N)NC(=O)[C@H](C)NC(=O)[C@H](C)NC(=O)[C@H](CCC(N)=O)NC(=O)[C@H](CCC(=O)O)NC(=O)[C@H](CC(=O)O)NC(=O)[C@H](CC(C)C)NC(=O)[C@@H](NC(=O)[C@@H](NC(=O)[C@H](C)NC(=O)[C@H](CC(C)C)NC(=O)[C@H](CCC(=O)O)NC(=O)[C@H](CO)NC(=O)[C@@H](NC(=O)[C@H](Cc1ccccc1)NC(=O)[C@H](CO)NC(=O)CNC(=O)[C@H](CCC(=O)O)NC(=O)C(C)(C)NC(=O)[C@@H](N)Cc1c[nH]cn1)[C@@H](C)O)[C@@H](C)O)[C@@H](C)CC)C(=O)N[C@@H](C)C(=O)N[C@@H](Cc1c[nH]c2ccccc12)C(=O)N[C@@H](CC(C)C)C(=O)N[C@H](C(=O)N[C@@H](CCC(=O)O)C(=O)N[C@@H](Cc1c[nH]cn1)C(=O)N[C@@H](CCCCN)C(=O)N[C@H](C(=O)N[C@H](C(=O)N[C@@H](CC(=O)O)C(=O)N[C@H](CCCCN)C(=O)N[C@H](CCCCN)C(=O)N[C@H](CCCCN)C(=O)N[C@H](CCCCN)C(=O)N[C@H](CCCCN)C(=O)N[C@H](CCCCNC(=O)CC[C@H](NC(=O)CCCCCCCCCCCCCCCCC(=O)O)C(=O)O)C(N)=O)[C@@H](C)O)[C@@H](C)CC)[C@@H](C)CC
B5: Compound 36 (peptide)
peptide: H-H[Aib]EGSFTSELATILDK(Stearoyl)QAARDFIAWLIQYKITD-OH
SMILES: CCCCCCCCCCCCCCCCCC(=O)NCCCC[C@H](NC(=O)[C@H](CC(=O)O)NC(=O)[C@H](CC(C)C)NC(=O)[C@@H](NC(=O)[C@@H](NC(=O)[C@H](C)NC(=O)[C@H](CC(C)C)NC(=O)[C@H](CCC(=O)O)NC(=O)[C@H](CO)NC(=O)[C@@H](NC(=O)[C@H](Cc1ccccc1)NC(=O)[C@H](CO)NC(=O)CNC(=O)[C@H](CCC(=O)O)NC(=O)C(C)(C)NC(=O)[C@@H](N)Cc1c[nH]cn1)[C@@H](C)O)[C@@H](C)O)[C@@H](C)CC)C(=O)N[C@@H](CCC(N)=O)C(=O)N[C@@H](C)C(=O)N[C@@H](C)C(=O)N[C@@H](CCCNC(=N)N)C(=O)N[C@@H](CC(=O)O)C(=O)N[C@@H](Cc1ccccc1)C(=O)N[C@H](C(=O)N[C@@H](C)C(=O)N[C@@H](Cc1c[nH]c2ccccc12)C(=O)N[C@@H](CC(C)C)C(=O)N[C@H](C(=O)N[C@@H](CCC(N)=O)C(=O)N[C@@H](Cc1ccc(O)cc1)C(=O)N[C@@H](CCCCN)C(=O)N[C@H](C(=O)N[C@H](C(=O)N[C@@H](CC(=O)O)C(=O)O)[C@@H](C)O)[C@@H](C)CC)[C@@H](C)CC)[C@@H](C)CC

Key:
[1] = target: human glucagon-like peptide 1 receptor (GLP-1 R) (human, UniProt P43220 24-463); experiment: cell-based or functional assay
[2] = target: T1, human GLP-2 receptor (hGLP2-R); experiment: cell-based or functional assay

| Binder | EC50 GLP-1 (nM); cAMP response [1] [nM] | EC50 GLP-2 (nM); cAMP response [2] [nM] |
| --- | --- | --- |
| B1 | 0.067 | 0.33 |
| B2 | 0.099 | 0.3 |
| B3 | 0.044 | 0.98 |
| B4 | 0.074 | 0.5 |
| H-H[Aib]EGTFTSELATILDK([γGlu-C20 diacid])QAARDFIAWLIQHKITD-OH [Compound 41] | 0.048 | 0.62 |
| B5 | 0.32 | 3.2 |
| H-H[Aib]EGTFSSELATILDEQAARDFIAWLIAHKITD[dK][dK][dK][dK][dK][dK]([γGlu-C18 diacid])-NH2 [Compound 38] | 0.25 | 0.89 |
